Reference: patent US20230002500A1 (BEIGENE, published 2023)

T1: recombinant OX40 protein with a His tag (Cat: 10481-H08H, Sino Biological) (UniProt P43489 29-216)
T1 construct: Bought protein; not shown: His tag
T1 sequence (looked up): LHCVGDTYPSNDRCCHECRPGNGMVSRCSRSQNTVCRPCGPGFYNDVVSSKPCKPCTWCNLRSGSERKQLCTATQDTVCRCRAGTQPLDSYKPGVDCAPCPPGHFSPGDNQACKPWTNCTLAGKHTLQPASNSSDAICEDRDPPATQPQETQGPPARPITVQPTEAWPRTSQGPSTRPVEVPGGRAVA

T2: full-length human OX40 expressed on HuT78 cells (HuT78/OX40) (human, UniProt P43489 29-277)
T2 sequence: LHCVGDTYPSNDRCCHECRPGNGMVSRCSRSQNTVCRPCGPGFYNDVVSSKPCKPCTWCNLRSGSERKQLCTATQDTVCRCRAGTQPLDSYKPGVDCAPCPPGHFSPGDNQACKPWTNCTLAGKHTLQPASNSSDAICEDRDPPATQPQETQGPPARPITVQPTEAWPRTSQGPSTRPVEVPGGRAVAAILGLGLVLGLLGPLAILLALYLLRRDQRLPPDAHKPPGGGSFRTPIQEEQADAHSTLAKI


Columns and labels:
[1] = biological target: T1, recombinant OX40 protein with a His tag …; assay: SPR (BIAcore T-200), antibody captured by anti-human IgG, OX40-His flowed; Test 1
Text: (§1) The anti-OX40 antibodies were characterized for their binding kinetics and affinity by SPR assays using BIAcore™ T-200 (GE Life Sciences). Briefly, anti-human IgG antibody was immobilized on an activated CM5 biosensor chip (Cat: BR100530, GE Life Sciences). An antibody with human IgG Fc region was flowed over the chip surface and captured by anti-human IgG antibody. Then a serial dilution of recombinant OX40 protein with a His tag (Cat: 10481-H08H, Sino Biological) was flowed over the chip surface and changes in surface plasmon resonance signals were analyzed to calculate the association rates (ka) and dissociation rates (kd) by using the one-to-one Langmuir binding model (BIA Evaluation Software, GE Life Sciences). The equilibrium dissociation constant (KD) was calculated as the ratio kd/ka.

[2] = biological target: T1, recombinant OX40 protein with a His tag …; assay: Biacore SPR (set-up not named on the sheet; by Example 4 antibody captured, OX40-His flowed)
[3] = biological target: T1, recombinant OX40 protein with a His tag …; assay: SPR (BIAcore T-200), antibody captured by anti-human IgG, OX40-His flowed; Test 2
Text: as §1

[4] = biological target: T2, full-length human OX40 expressed on …; assay: cell-based or functional assay

koff [1]	kon [1]	koff [2]	kon [2]	koff [3]	kon [3]	ADCC, LDH release, NK92MI/CD16V effector cells and HuT78/OX40 target cells, EC50 [4]	IL-2 production of HuT78/OX40 cells co-cultured with HEK293/OS8Low-FcγRI cells (ELISA), EC50 [4]	Binder
0.00161 s⁻¹	161000 M⁻¹ s⁻¹							445-3 IgG4 (445-3 with the Fc domain of human IgG4 with S228P and R409K mutations) (antibody, V domains shown) VH: QVQLVQSGAEVKKPGSSVKVSCKASGYKFTSYIIHWVRQAPGQGLEWMGYINPYNEGTRYNQKFQGRVTLTADKSTSTAYMELSSLRSEDTAVYYCARGYYGSSYAMDYWGQGTTVTVSS VL: DIQMTQSPSSLSASVGDRVTITCRASQGISNYLNWYQQKPDGAIKLLIYDASTLYSGVPSRFSGSGSGTDFTLTISSLQPEDFATYYCQQYSKLPYTFGGGTKVEIK
0.00167 s⁻¹	182000 M⁻¹ s⁻¹	0.00148 s⁻¹	174000 M⁻¹ s⁻¹	0.00159 s⁻¹	163000 M⁻¹ s⁻¹	27 ng/mL	0.06 ng/mL	humanized anti-OX40 monoclonal antibody 445-3 (antibody, V domains shown, Human IgG1 wild type format) VH: QVQLVQSGAEVKKPGSSVKVSCKASGYKFTSYIIHWVRQAPGQGLEWMGYINPYNEGTRYNQKFQGRVTLTADKSTSTAYMELSSLRSEDTAVYYCARGYYGSSYAMDYWGQGTTVTVSS VL: DIQMTQSPSSLSASVGDRVTITCRASQGISNYLNWYQQKPDGAIKLLIYDASTLYSGVPSRFSGSGSGTDFTLTISSLQPEDFATYYCQQYSKLPYTFGGGTKVEIK
